Data published in publication PMC2988884 (Nature structural & molecular biology, 2010).

T1: Trs120 with a C-terminal TAP tag (Trs120-TAP) (S. cerevisiae (endogenous in yeast), UniProt Q04183 1-1289)
T1 sequence (looked up): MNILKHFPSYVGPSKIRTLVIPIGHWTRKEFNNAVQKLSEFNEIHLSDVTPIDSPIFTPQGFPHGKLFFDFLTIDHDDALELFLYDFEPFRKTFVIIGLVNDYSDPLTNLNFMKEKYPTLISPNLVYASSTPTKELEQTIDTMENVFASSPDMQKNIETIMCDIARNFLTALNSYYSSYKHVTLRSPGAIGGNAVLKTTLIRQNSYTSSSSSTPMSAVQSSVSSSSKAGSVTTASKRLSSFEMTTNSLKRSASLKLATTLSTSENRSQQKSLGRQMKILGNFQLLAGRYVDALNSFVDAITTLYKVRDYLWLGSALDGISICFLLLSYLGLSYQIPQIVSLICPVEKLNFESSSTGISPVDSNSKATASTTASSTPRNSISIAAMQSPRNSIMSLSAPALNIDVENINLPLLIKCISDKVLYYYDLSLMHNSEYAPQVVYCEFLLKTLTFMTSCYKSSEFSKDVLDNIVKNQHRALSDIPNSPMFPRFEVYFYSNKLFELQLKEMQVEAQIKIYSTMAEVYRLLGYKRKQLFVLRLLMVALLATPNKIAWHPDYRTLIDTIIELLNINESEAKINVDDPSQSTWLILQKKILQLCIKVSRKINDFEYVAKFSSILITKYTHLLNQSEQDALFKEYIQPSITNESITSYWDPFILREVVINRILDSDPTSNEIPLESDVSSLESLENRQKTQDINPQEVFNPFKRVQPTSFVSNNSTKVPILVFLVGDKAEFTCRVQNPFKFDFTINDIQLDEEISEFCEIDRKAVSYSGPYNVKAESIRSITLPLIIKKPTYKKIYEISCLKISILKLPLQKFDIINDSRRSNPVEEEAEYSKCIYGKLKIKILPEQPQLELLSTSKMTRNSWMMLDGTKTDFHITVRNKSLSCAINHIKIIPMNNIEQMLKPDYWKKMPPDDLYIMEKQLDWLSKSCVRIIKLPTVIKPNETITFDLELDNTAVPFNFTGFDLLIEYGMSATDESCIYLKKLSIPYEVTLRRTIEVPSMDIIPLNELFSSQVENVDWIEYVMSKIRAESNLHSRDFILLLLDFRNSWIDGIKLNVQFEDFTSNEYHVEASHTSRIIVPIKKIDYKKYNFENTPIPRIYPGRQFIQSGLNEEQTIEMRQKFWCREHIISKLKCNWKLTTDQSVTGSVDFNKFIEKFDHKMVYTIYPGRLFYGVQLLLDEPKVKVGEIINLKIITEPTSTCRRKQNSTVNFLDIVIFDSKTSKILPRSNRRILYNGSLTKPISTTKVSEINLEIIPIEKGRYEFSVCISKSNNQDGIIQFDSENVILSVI

B1: Trs130 (natural protein, S. cerevisiae (endogenous in yeast), UniProt Q03660 1-1102, looked up)
chain: MDKEIYCGSVPVSYFDPFDLFESLRPEFQQILPLDNIHWKAFDGTVRTVNRLPIELIPEGRGEADKSNDEQPFIRFLIVNCISIDQYRAKVRPLVRQWLPNLESVSSSTGEKMIYKPIILLYANSEVVDSNLFKSVSLMEKFGKDFPHVQTLEVRSVYRSPKERQEFWNQFSQKIKASVLSIFQKRLTHLQHSLANLQKGNNFEEQLLTREKLYELYVVFNILEDASLELQKIKKEILRRNMNMPDGKLQVPFESSSKSDESLGSIIIEGTLDKFQLHKYFFIRRLRLLKLEDQTLTAFVGAFQLIKNFIESISIEYRKSVRLLEFKHYFITSMLSYFEFENVSNPLLCEIKAELLMLKRDNWVQGVMATSGYRLMDKNYPNSDVKYKFDLLKETFVDETVFQENFLTLTKEILSLFNKCEGKRQRIVDILSIEIGLLYYQGKKYEEAVSLFLSCYEYYTQTNWNSIGLKILQVFIDSLSHCPKLDVLQIDGESVSASAVLTNAFLNILKLCKDNDSKEIWWKKFMDLQMKNNIHLMYPLDGLFEVTLNSKVHLARANVSAIEVNLKSYGFPEDISTKTMRLSLKNMGGDVIVFGASDFLLKKGENKLILECRDIMYGEFSLLSFEIIVEGITFVKEFPENQDEFIVVPEIYCKESTKVLVKQAHNLNLGEYALELKSVQSDALESLQVEVEVQKNIGNMKNLPVSFSMDEIQARKRYNTPFENVRLEYYLLDQITAFDLIIKTSFTKKNDQGTFGETKKVRIQCYLQLSVSVEDIFKKDIFFFKFLLNSSVREEPVILYSSELSAPDTRNDYNIRGDYIATTPALITFDGNESFINCYEITANNNFDSKDIFNLKVRYNTLKEQLDCFITDAVLIEGDVEWFILFEKWKTFWELEILKKLKYDYDAFKENRIIRLLKTSIDLNKTKSKIRNLCIEKAVLDKILICLNKVSRGIAVCNTDMDEYVRNLVPKQLTVPVQLPGFEQFFHVQFEQMETSHDALHDTIATIGNSLSYTVIVENLSGQWGQDVIDDGGYIFEILSSNEWLIHGQKRCAIKEKRKEFEVHLIPLKKGYLNFPRVEITNINGKSCRVDHSNAFESILIF

Key:
[1] = biological target: T1, Trs120 with a C-terminal TAP tag …; experiment: single-particle EM
[2] = biological target: B1; experiment: single-particle EM

Row | binding result [1] | binding result [2] | Binder
1 | binds |  | Trs33 (natural protein, S. cerevisiae (endogenous in yeast), UniProt Q99394 1-268, looked up) MSSTHSNNVGHPQSSPQGPLTEQQRAQQQYQIFENSLPKVSQSVYQMLLNEMVPLAMGIERQISGDVISSDSNVTSENGNINNMIKRLKIEEHHTVDIIRSHNLIHELYKADEEEKEKVLARLRNIGFQIGLKLSELLIFSNNPNLKFKEMDLLLIMKFICRDVWKQIFGKQIDNLKTNHRGTFYLLDYDYRPIQSFSLEEDAKNEELKMIEPFLEIPVGIIRGVLSSLGYSSEEVICLASFIDRPTDRPKTAFPKGVSFHVQVTMPQ
2 | binds |  | Bet3 (natural protein, S. cerevisiae (endogenous in yeast), UniProt P36149 1-193, looked up) MVSTTQSRSLKAMGEEIWKNKTEKINTELFTLTYGSIVAQLCQDYERDFNKVNDHLYSMGYNIGCRLIEDFLARTALPRCENLVKTSEVLSKCAFKIFLNITPNITNWSHNKDTFSLILDENPLADFVELPMDAMKSLWYSNILCGVLKGSLEMVQLDCDVWFVSDILRGDSQTEIKVKLNRILKDEIPIGED
3 |  | binds | Trs20 (natural protein, S. cerevisiae (endogenous in yeast), UniProt P38334 1-175, looked up) MPQYFAIIGKKDNPVYEIEFTNAENPQGFPQDLKELNPFILHASLDIVEDLQWQINPTSQLNGNGGNGSNGGGGFLRSRAVNNTDNCYLGKVDHFYGLAITAYISYSGMKFVMIHGNSANSSVVIDDNNMRSFYQEVHELYVKTLMNPFYKITDPIRSPAFDSRVRTLARKHLSK
4 | binds |  | B1
